From patent publication US20260274981A1 (VIB VZW, published 2026) come the findings set out here.

Residue numbers refer to the chain shown, from its start. Names may count otherwise.

Assay [1] has as its target T1, recombinant human TfR (2474-TR, R&D Systems), biotinylated (human, UniProt P02786 89-760, biotinylated with EZ-Link NHS-PEG4-Biotinylation Kit).
T1 construct: Bought protein; also called immobilized recombinant human TfR; biotinylated human TfR
The assay is described as follows: SPR (Biacore), biotinylated human TfR captured on an SA chip, VHH injected, 1:1 dissociation fit, pH 7.4. On the procedure: (§1) E. coli TG1 bacteria were transformed with those plasmids and expressions induced. Crude extracts were prepared and analyzed for binding by flow cytometry on human TfR overexpressing cells. […] Next, off rates of these selected variants were determined on recombinant human TfR by surface plasmon resonance (Biacore, Marlborough, Massachusetts, United States). Biotinylated human TfR was captured on a streptavidin-coated SA sensor chip (Cytiva). Increasing concentrations of nanobodies were sequentially injected in a single cycle at a flow rate of 30 μL/min. The dissociation was monitored for around 20 min. A reference flow was used as a control for non-specific binding and refractive index changes. Several buffer blanks were used for double referencing. Off rates were derived after fitting the experimental data to the 1:1 binding model with the Biacore Evaluation Software.
(§2) Surface Plasmon Resonance (SPR) was used to measure the interaction between VHHs and human or cynomolgus TfR receptor. Human TfR (2474-TR, R&D Systems) and cynomolgus TfR (90253-C07H, Sino Biological) were biotinylated with the EZ-Link NHS-PEG4-Biotinylation Kit (ThermoFischer Scientific) according to the manufacturer instructions. The binding experiments were performed at 25° C. on a Biacore T200 instrument (Cytiva, Uppsala, Sweden) in HBS-EP+ buffer (10 mM HEPES, 150 mM NaCl, 3 mM EDTA and 0.05% v/v Surfactant P20). Biotinylated human TfR and cynomolgus TfR were captured on a SA sensor chip (Cytiva) at a density of around 250 RU. Increasing concentrations of VHHs were sequentially injected in one single cycle at a flow rate of 30 μl/min. The dissociation was monitored for 20 min. […] A reference flow was used as a control for non-specific binding and refractive index changes. Several buffer blanks were used for double referencing. Binding affinities (KD) and kinetic rate constants (kₒₙ, koff) were derived after fitting the experimental data to the 1:1 binding model with the Biacore T200 Evaluation Software 3.1 using the single cycle kinetic procedure.

Assay [2] concerns the target T1, recombinant human TfR (2474-TR, R&D …). Briefly: SPR (Biacore), biotinylated human TfR captured on an SA chip, VHH injected, 1:1 dissociation fit, pH 5.5. As for the experimental part: as §1, §2
The target is the same in assay [3]. The assay is described as follows: SPR (Biacore), ratio of the off rates on human TfR at the two pH values; the printed number equals kd at pH 5.5 divided by kd at pH 7.4. As for the experimental part: as §1, §2
Assay [4] concerns the target T2, human TfR overexpressed on CHO cells (human, UniProt P02786 1-760).
T2 construct: construct is TfR followed by an HA tag and IRES-GFP; also called hTfR; human transferrin receptor
The assay is described as follows: flow cytometry, column 'Binding to human TfR1 EC50 (M)'; paragraph 156 calls it the capacity to compete for binding on human TfR1, competitor not named.

The target in assay [5] is T3, cynomolgus TfR overexpressed on CHO cells (cynomolgus monkey, UniProt Q5RDH6 1-760 (Pongo abelii entry)).
T3 construct: construct is TfR followed by an HA tag and IRES-GFP; also called cynomolgus monkey TfR1; NHP TfR
T3 chain: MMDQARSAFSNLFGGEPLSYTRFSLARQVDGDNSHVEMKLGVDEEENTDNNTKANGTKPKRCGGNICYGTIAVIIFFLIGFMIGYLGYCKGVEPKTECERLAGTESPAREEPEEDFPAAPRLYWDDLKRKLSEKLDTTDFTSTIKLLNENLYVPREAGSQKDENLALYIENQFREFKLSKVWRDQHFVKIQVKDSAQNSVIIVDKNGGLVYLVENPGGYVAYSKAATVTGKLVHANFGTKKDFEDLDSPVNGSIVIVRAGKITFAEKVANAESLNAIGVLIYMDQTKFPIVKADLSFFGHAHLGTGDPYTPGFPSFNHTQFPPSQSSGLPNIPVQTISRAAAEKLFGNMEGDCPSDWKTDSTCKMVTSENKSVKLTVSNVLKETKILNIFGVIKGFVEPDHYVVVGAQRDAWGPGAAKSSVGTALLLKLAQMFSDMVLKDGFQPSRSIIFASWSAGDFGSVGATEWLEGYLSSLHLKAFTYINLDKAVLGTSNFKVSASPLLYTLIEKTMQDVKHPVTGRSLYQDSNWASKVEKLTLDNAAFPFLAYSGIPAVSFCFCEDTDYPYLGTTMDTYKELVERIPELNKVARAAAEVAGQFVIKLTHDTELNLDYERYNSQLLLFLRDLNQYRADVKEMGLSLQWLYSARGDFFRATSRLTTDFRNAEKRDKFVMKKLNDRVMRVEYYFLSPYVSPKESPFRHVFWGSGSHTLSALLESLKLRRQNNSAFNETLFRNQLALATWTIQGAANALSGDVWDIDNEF
Briefly: flow cytometry, column 'Binding to cyno TfR1 EC50 (M)'; paragraph 156 calls it the capacity to compete for binding on cynomolgus monkey TfR1, competitor not named.

Assay [6] deals with T2, human TfR overexpressed on CHO cells. Briefly: flow cytometry, first of two columns 'Binding to human TfR1 EC50 (M)' (second column: ND); paragraph 156 calls it the capacity to compete for binding on human TfR1, competitor not named.
In assay [7] the target is T3, cynomolgus TfR overexpressed on CHO …. Briefly: flow cytometry, first of two columns 'Binding to cyno TfR1 EC50 (M)' (second column: ND); paragraph 156 calls it the capacity to compete for binding on cynomolgus monkey TfR1, competitor not named.
Assay [8] deals with T2, human TfR overexpressed on CHO cells. The assay is described as follows: flow cytometry, second of two columns 'Binding to human TfR1 EC50 (M)' (first column: ND); paragraph 156 calls it the capacity to compete for binding on human TfR1, competitor not named.
For assay [9], the target named is T3, cynomolgus TfR overexpressed on CHO …. The assay is described as follows: flow cytometry, second of two columns 'Binding to cyno TfR1 EC50 (M)' (first column: ND); paragraph 156 calls it the capacity to compete for binding on cynomolgus monkey TfR1, competitor not named.

T1 sequence (P02786 89-760 limits assumed): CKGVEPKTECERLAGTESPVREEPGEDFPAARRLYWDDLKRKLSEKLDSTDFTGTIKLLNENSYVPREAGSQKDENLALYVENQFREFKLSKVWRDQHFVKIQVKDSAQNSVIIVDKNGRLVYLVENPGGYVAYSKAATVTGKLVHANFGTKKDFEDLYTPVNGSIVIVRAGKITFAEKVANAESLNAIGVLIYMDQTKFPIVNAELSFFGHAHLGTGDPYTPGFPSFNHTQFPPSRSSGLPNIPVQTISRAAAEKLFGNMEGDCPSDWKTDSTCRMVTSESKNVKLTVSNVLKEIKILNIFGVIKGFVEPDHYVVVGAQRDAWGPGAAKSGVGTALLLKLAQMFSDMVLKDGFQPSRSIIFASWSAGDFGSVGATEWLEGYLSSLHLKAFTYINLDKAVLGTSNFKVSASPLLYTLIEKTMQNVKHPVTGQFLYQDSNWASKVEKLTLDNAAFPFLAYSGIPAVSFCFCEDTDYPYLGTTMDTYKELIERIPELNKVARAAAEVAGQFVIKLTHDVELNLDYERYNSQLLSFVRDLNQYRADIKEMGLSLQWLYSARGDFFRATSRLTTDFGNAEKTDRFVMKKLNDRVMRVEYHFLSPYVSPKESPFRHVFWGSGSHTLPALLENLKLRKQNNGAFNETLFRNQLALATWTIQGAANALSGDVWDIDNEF

B1: BBB00767 (VHH)
VHH: EVQLVESGGGLVQAGGSLRLSCAASGSIFSINAMGWYRQAPGKQRELVAVITSGGSTIYADSVKGRFTISRDNAENTVYLQMNSLRPEDTAVYYCNAHVGLKVPTIQELHLGFGSWGQGTLVTVSS
notes: Histidine mutant
Turning to B1, the koff is 0.00507 s⁻¹ in assay [1] and 0.0113 s⁻¹ in [2]. Moreover, in assay [3], the “off-rate ratio kd pH5.5/kd pH7.4” value is 2.23.

B2: BBB00515_h1 (VHH)
VHH: B1 VHH with A14P, H110S
With B2, the concentration giving a half-maximal response (EC50) in assay [4] is 120 nM; in assay [5] it was 26 nM.

B3: BBB00515_h04 (VHH)
VHH: B1 VHH with E1D, A14P, E75K, H110S
notes: The sheet prints E1D and E84K (IMGT) against BBB00515_h01; also called BBB00515_h4
With B3, the EC50 in assay [4] came out at 60 nM; in assay [5], 22 nM.

B4: BBB00772 (VHH)
VHH: B1 VHH with H110S, S115H
notes: Histidine mutant
Regarding B4, the koff in [1] turned out to be 0.00737 s⁻¹; in assay [2], 0.0141 s⁻¹. Also, the “off-rate ratio kd pH5.5/kd pH7.4” value in assay [3] is 1.92.

B5: BBB00770 (VHH)
VHH: B1 VHH with H110S, F113H
notes: also called histidine mutant of BBB00533
Regarding B5, the results for the koff in assay [1] and in [2] were 0.00727 s⁻¹ and 0.0245 s⁻¹, respectively. Further, the “off-rate ratio kd pH5.5/kd pH7.4” value in assay [3] stood at 3.37.

B6: BBB00771 (VHH)
VHH: B1 VHH with H110S, G114H
notes: Histidine mutant
For the molecule B6, the koff came to 0.011 s⁻¹ in [1] and 0.0183 s⁻¹ in assay [2]. In [3], the “off-rate ratio kd pH5.5/kd pH7.4” value was 1.67.

B7: BBB00515_h02 (VHH)
VHH: B1 VHH with A14P, E75K, H110S
notes: The sheet prints E84K (IMGT) against BBB00515_h01; also called BBB00515_h2
Regarding B7, the EC50 in [4] turned out to be 67 nM; in [5], 23 nM.

B8: BBB00533_h14 (VHH)
VHH: EVQLVESGGGLVQPGGSLRLSCTASGRTFNYAMGWFRQAPGKNREFVATIDWKDGSSYYADSVKGRFTISRDDAKNTVYLQMNSLRPEDTAVYYCAVGEGDYCSTYTCAAEVEYDYWGQGTLVTVSS
As to B8, the EC50 in assay [6] is 340 nM; in assay [7], 180 nM.

B9: BBB00533_h13 (VHH)
VHH: B8 VHH with E99Q
Turning to B9, the results for the EC50 in [6] and in assay [7] were 560 nM and 240 nM, respectively.

B10: BBB00533_h10 (VHH)
VHH: B8 VHH with A60L, D73N, E99D
notes: The sheet prints R72K and D82N (IMGT) against BBB00533_h01
Take B10: the EC50 in [8] is 110 nM; in assay [9], 14 nM.

B11: BBB00533_h17 (VHH)
VHH: B8 VHH with D54Q
Consider B11, for which the EC50 in [6] was found to be 290 nM; in assay [7], 120 nM.
